Values quoted from earlier work as cited in publication PMC10551901.
pKd: −log10 of the molar value.

Tests used:
[1] = target: Rab32 (Homo sapiens) (UniProt Q13637)
[2] = target: Rab38 (Homo sapiens) (UniProt P57729)
[3] = target: Rab29 (Homo sapiens) (UniProt O14966)
Sequence of UniProt O14966 (O14966 whole entry): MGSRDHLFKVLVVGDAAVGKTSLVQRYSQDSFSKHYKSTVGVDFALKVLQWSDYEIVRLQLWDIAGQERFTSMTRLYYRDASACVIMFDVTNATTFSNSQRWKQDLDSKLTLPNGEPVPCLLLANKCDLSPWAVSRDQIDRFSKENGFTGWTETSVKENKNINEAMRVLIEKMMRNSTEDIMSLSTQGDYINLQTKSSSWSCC

Sequence of UniProt P57729 (P57729 whole entry): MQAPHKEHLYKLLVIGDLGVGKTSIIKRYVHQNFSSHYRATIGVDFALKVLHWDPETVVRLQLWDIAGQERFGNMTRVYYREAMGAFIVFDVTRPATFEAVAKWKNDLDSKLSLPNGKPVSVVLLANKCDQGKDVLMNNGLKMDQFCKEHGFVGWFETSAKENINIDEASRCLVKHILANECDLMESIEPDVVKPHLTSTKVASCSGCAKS
Sequence of UniProt Q13637 (Q13637 2-225): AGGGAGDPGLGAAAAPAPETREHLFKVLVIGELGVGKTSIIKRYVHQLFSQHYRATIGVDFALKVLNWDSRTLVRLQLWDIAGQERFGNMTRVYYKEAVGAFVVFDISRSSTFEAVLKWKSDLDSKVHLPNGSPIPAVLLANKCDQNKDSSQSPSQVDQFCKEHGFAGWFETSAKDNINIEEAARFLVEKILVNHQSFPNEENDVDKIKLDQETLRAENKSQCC

- pKd [1]: 5.70
- pKd [2]: 5.70
- pKd [3]: 5.70
Substance: LRRK2 1-552 (from UniProt Q5S007)
